According to patent US11612667B2, “Enhanced in vivo targeting of radiolabelled peptides with the means of enzyme inhibitors” (Advanced Accelerator Applications USA, Inc., priority 2011, dated 2023):
Non-standard residues stand in square brackets, D forms with d. Residues, ends and D or L forms follow the SMILES beside them. *: point of attachment. DOTA = O=C(O)CN1CCN(CC(=O)O)CCN(CC(=O)*)CCN(CC(=O)O)CC1; Nle = CCCC[C@H](N)C(=O)O; X1 = NCCNCC(CNCCN)C(=O)*; AEEA = NCCOCCOCC(=O)O; βAla = NCCC(=O)O; For = O=C*

Columns and labels:
[1] = set-up: species or system Swiss albino mice; conditions: mouse, in vivo, 5 min
Protocol: Whole blood was collected 5 min postinjection (pi), blood cells were removed and major proteins were precipitated and then the supernatant was analyzed by RP-HPLC coupled to a gamma detector.
Alternatively, the dual NEP and ACE inhibitor racecadotril (race; 2.5 mg) was ip injected 45-60 min prior to radioligand injection and the same procedure was followed as described above.
To test the in vivo stability, ^111In-DOTA-MG11 was injected in the tail vein of Swiss albino mice and 5 min afterwards blood was collected, blood cells were removed and major proteins were precipitated and then the supernatant was analyzed by RP-HPLC coupled to a gamma detector. As shown in the radiochromatogram of FIG. 3A, the major part of ^111In-DOTA-MG11 was consumed during this period (<5% intact peptide still detected), in agreement with previous reports. Further, ^111In-DOTA-MG11 was co-injected together with PA or injected 1 h after ip injection of race (2.5 mg) in more mice and the same protocol was followed as above. Amazingly, the percentage of ^111In-DOTA-MG11 found intact in the blood of the PA-treated mice was raised from <5% to 75% and in the race-pretreated mice to 73%.
For ex vivo blood analysis, [^99mTc]Demotensin 6 was injected in the tail vein of Swiss albino mice and blood collected 5 min thereafter was analyzed as previously described. The effect of PA on stability was studied by co-injection of PA along with [^99mTc]Demotensin 6. Furthermore, a PA dose study was performed with the PA injected dose ranging from 300 μg down to 0.03 μg and results are summarized in FIG. 4A.
Additional groups of radiopeptides with relevance for nuclear medicine applications have been studied for their in vivo stability. Radiopeptides were injected in the tail vein of healthy mice, either alone, or with a NEP inhibitor (PA—300 μg), or with a NEP (PA—300 μg) and an ACE (Lis—300 μg) inhibitor mixture; alternatively, another NEP inhibitor prodrug (race—2.5 mg) was ip injected in the animals ˜45 min prior to radioligand injection. Blood was collected 5 min afterwards, and analyzed by RP-HPLC after suitable preparation, as previously described.

[2] = system: human prostate adenocarcinoma PC-3 xenografts (GRPR+); set-up: species or system SCID mice; conditions: mouse, in vivo; for uptake in PC-3 tumor: SCID, 4 h
Protocol: FIG. 6C: Biodistribution of [^99mTc]SAR-NC1 in SCID mice bearing human prostate adenocarcinoma PC-3 xenografts (GRPR^+) at 4 h pi.
In FIG. 6B and FIG. 7B, the biodistribution of [^99mTc]SAR-NC1 and [^99mTc]SAR-NC6 in SCID mice bearing human prostate adenocarcinoma PC-3 xenografts (GRPR^+) at 4 h respectively, after injection of the radioligand alone or with co-injection of PA (300 μg) are shown.
It is interesting to note that with co-injection of the blocker and PA tumor values were minimal (0.69±0.03% ID/g) showing that PA provoked a GRPR-mediated increase in tumor uptake.
The effect of PA-induced stabilization of [^99mTc]Demobesin 1 on tumor uptake is illustrated in FIG. 10B, showing the biodistribution at 4 h pi after injection of [^99mTc]Demobesin 1 in SCID mice bearing human PC-3 xenografts (GRPR^+) (control), or with PA (300 μg).

[3] = mouse; cited from earlier work
[4] = system: WiDr tumors (hNTS1+); assay: Biodistribution / tumor uptake in SCID mice bearing WiDr tumors (hNTS1+); conditions: 4 h pi
Protocol: FIG. 4H: Biodistribution of [^99mTc]Demotensin 6 in SCID mice bearing WiDr tumors (hNTS1^+) at 4 h pi. Bars represent average uptake as mean % injected dose per gram (% ID/g) of at least 4 animals with standard deviation (control at 4 h 2nd bars); three additional groups of animals received either excess NT(1-13) and PA (100 μg blocker and 300 μg PA—first bars), or PA (300 μg PA—3rd bars) or PA and Lis (300 μg PA+250 μg Lis—4th bars). Bl=blood, Li=liver, He=heart, Ki=kidneys, St=stomach, In=intestines, Sp=spleen, Mu=muscle, Lu=lungs, Pa=pancreas, Fe=femur and Tu=WiDr tumor.
FIG. 5H: Biodistribution of [^99mTc]Demotensin 1 in SCID mice bearing WiDr tumors (hNTS1+) at 4 h pi. Bars represent average uptake as mean % injected dose per gram (% ID/g) of at least 4 animals with standard deviation (control at 4 h 2nd bars); three additional groups of animals received either excess NT and PA (100 μg and 300 μg PA, respectively—first bars), or PA (300 μg PA—3rd bars) or PA and Lis (300 μg PA+300 μg Lis—4th bars). Bl=blood, Li=liver, He=heart, Ki=kidneys, St=stomach, In=intestines, Sp=spleen, Mu=muscle, Lu=lungs, Pa=pancreas, Fe=femur and Tu=WiDr tumor.
In FIG. 4B the effects of such regimens on SCID mice bearing the human colon adenocarcinoma WiDr tumor (a hNTS1R^+ tumor) on enhancing in vivo tumor targeting are presented.
In FIG. 5B the effects of above regimens on SCID mice bearing WiDr tumors (hNTS1R^+) on enhancing in vivo tumor targeting are shown.

SMILES	percentage of parent peptide remaining intact [1]	uptake in PC-3 tumor [2]	also measured
CCCC[C@H](NC=O)C(=O)N[C@@H](CC(C)C)C(=O)N[C@@H](Cc1ccccc1)C(=O)N[C@@H](CCCC)C(=O)N[C@@H](Cc1ccc(O)cc1)C(=O)N[C@@H](CCCCNC(=O)CN1CCN(CC(=O)O)CCN(CC(=O)O)CCN(CC(=O)O)CC1)C(=O)O [[111In] CTP-1, For-Nle-Leu-Phe-Nle-Tyr-Lys(DOTA)-OH, metal not drawn] (For-[Nle]LF[Nle]YK(DOTA)-OH)	2%	–	–
CCCC[C@H](NC(=O)[C@H](CO)NC(=O)[C@H](Cc1ccc(O)cc1)NC(=O)[C@H](CO)NC(=O)CN1CCN(CC(=O)O)CCN(CC(=O)O)CCN(CC(=O)O)CC1)C(=O)N[C@@H](CCC(=O)O)C(=O)N[C@@H](Cc1c[nH]cn1)C(=O)N[C@@H](Cc1ccccc1)C(=O)N[C@@H](CCCNC(=N)N)C(=O)N[C@@H](Cc1c[nH]c2ccccc12)C(=O)NCC(=O)N[C@@H](CCCCN)C(=O)N1CCC[C@H]1C(=O)N[C@H](C(N)=O)C(C)C [[111In]MSH-1, metal not drawn]	52%	–	–
CCCC[C@H](NC(=O)[C@H](CO)NC(=O)[C@H](Cc1ccc(O)cc1)NC(=O)[C@H](CO)NC(=O)CN1CCN(CC(=O)O)CCN(CC(=O)O)CCN(CC(=O)O)CC1)C(=O)N[C@@H](CCC(=O)O)C(=O)N[C@@H](Cc1cnc[nH]1)C(=O)N[C@H](Cc1ccccc1)C(=O)N[C@@H](CCCN=C(N)N)C(=O)N[C@@H](Cc1c[nH]c2ccccc12)C(=O)NCC(=O)N[C@@H](CCCCN)C(=O)N1CCC[C@H]1C(=O)N[C@H](C(N)=O)C(C)C [[111In]MSH-2, (DOTA)Ser-Tyr-Ser-Nle-Glu-His-DPhe-Arg-Trp-Gly-Lys-Pro-Val-NH2, metal not drawn]	77%	–	–
CSCC[C@H](NC(=O)[C@H](CC(C)C)NC(=O)CNC(=O)[C@H](Cc1ccccc1)NC(=O)[C@H](Cc1ccccc1)NC(=O)[C@H](CCC(N)=O)NC(=O)[C@H](CCC(N)=O)NC(=O)[C@@H]1CCCN1C(=O)[C@H](CCCCN)NC(=O)[C@@H]1CCCN1C(=O)[C@H](CCCNC(=N)N)NC(=O)CN1CCN(CC(=O)O)CCN(CC(=O)O)CCN(CC(=O)O)CC1)C(N)=O [[111In]SP-1, metal not drawn]	7%	–	–
CC(C)C[C@H](NC(=O)CNC(=O)[C@H](Cc1ccccc1)NC(=O)[C@H](Cc1ccccc1)NC(=O)[C@H](CCC(N)=O)NC(=O)[C@H](CCC(N)=O)NC(=O)[C@@H]1CCCN1C(=O)[C@H](CCCCN)NC(=O)[C@@H]1CCCN1C(=O)[C@H](CCCNC(=N)N)NC(=O)CN1CCN(CC(=O)O)CCN(CC(=O)O)CCN(CC(=O)O)CC1)C(=O)N[C@@H](CCS(C)(=O)=O)C(N)=O [[111In]SP-2, metal not drawn]	24%	–	–
CC(C)C[C@H](NC(=O)CN(C)C(=O)[C@H](Cc1ccccc1)NC(=O)[C@H](Cc1ccccc1)NC(=O)[C@H](CCC(N)=O)NC(=O)[C@H](CCC(N)=O)NC(=O)[C@@H]1CCCN1C(=O)[C@H](CCCCN)NC(=O)[C@@H]1CCCN1C(=O)[C@H](CCCNC(=N)N)NC(=O)CN1CCN(CC(=O)O)CCN(CC(=O)O)CCN(CC(=O)O)CC1)C(=O)N[C@@H](CCS(C)(=O)=O)C(N)=O [[111In]SP-3, metal not drawn]	51%	–	–
CCNC(=O)[C@H](CC(C)C)NC(=O)[C@H](Cc1c[nH]cn1)NC(=O)CNC(=O)[C@@H](NC(=O)[C@H](C)NC(=O)[C@H](Cc1c[nH]c2ccccc12)NC(=O)[C@H](CCC(N)=O)NC(=O)[C@@H](Cc1ccccc1)NC(=O)COCC(=O)Nc1ccc(CC(CNCCN)CNCCN)cc1)C(C)C [[^99mTc]Demobesin 1, metal not drawn]	–	12.73±0.93 % ID/g	in vitro stability in plasma [3]: high in vitro stability
CCCC[C@H](NC(=O)[C@H](CC(C)C)NC(=O)[C@H](Cc1c[nH]cn1)NC(=O)CNC(=O)[C@@H](NC(=O)[C@H](C)NC(=O)[C@H](Cc1c[nH]c2ccccc12)NC(=O)[C@H](CCC(N)=O)NC(=O)[C@H](CC(N)=O)NC(=O)CNC(=O)[C@H](Cc1ccc(O)cc1)NC(=O)[C@H](CCCN=C(N)N)NC(=O)[C@H](CCC(N)=O)NC(=O)[C@@H]1CCCN1C(=O)C(CNCCN)CNCCN)C(C)C)C(N)=O [[^99mTc]Demobesin 4, metal not drawn]	26%	11.26±1.81 % ID/g	in vitro stability in plasma [3]: very high
CC[C@H](C)[C@H](NC(=O)[C@H](Cc1ccc(O)cc1)NC(=O)[C@@H]1CCCN1C(=O)[C@H](CCCN=C(N)N)NC(=O)[C@H](CCCN=C(N)N)NC(=O)CNC(=O)C(CNCCN)CNCCN)C(=O)N[C@@H](CC(C)C)C(=O)O [[^99mTc]Demotensin 1, ^99mTc-N4-Gly-Arg-Arg-Pro-Tyr-Ile-Leu-OH, metal not drawn] (X1-GRRPYIL-OH)	–	–	uptake in WiDr tumor ([4]; PA 300 μg): 4.58±0.47 % ID/g; uptake in WiDr tumor ([4]; PA 300 μg + Lis (250 μg for Demotensin 6, 300 μg for Demotensin 1)): 7.71±1.19 % ID/g; uptake in WiDr tumor, blockade ([4]; excess NT 100 μg blocker + 300 μg PA): 0.23±0.09 % ID/g; uptake in WiDr tumor ([4]; non-treated controls): 1.20±0.21 % ID/g
CSCC[C@H](NC(=O)[C@H](CC(C)C)NC(=O)[C@H](Cc1c[nH]cn1)NC(=O)CNC(=O)[C@@H](NC(=O)[C@H](C)NC(=O)[C@H](Cc1c[nH]c2ccccc12)NC(=O)[C@H](Cc1c[nH]cn1)NC(=O)[C@H](CC(N)=O)NC(=O)CNC(=O)C(CNCCN)CNCCN)C(C)C)C(N)=O [[^99mTc]SAR-NC1, metal not drawn]	30%	6.51±1.91 % ID/g	–
CC(C)C[C@H](NC(=O)C[C@H](O)[C@H](CC(C)C)NC(=O)[C@H](Cc1c[nH]cn1)NC(=O)CNC(=O)[C@@H](NC(=O)[C@H](C)NC(=O)[C@H](Cc1c[nH]c2ccccc12)NC(=O)[C@H](CCC(N)=O)NC(=O)[C@@H](Cc1ccccc1)NC(=O)CCNC(=O)CCNC(=O)CN1CCN(CC(=O)O)CCN(CC(=O)O)CCN(CC(=O)O)CC1)C(C)C)C(N)=O [[^111In]JMV4168, [^111In]DOTA-βAla-βAla-DPhe-Gln-Trp-Ala-Val-Gly-His-Sta-Leu-NH2, metal not drawn]	–	10.22±2.40 % ID/g	pancreas uptake [2]: remained very low
CCCC[C@H](NC(=O)[C@H](Cc1ccccc1)NC(=O)[C@H](Cc1c[nH]cn1)NC(=O)CCNC(=O)[C@@H](NC(=O)[C@H](C)NC(=O)[C@H](Cc1c[nH]c2ccccc12)NC(=O)[C@H](CCC(N)=O)NC(=O)[C@@H](Cc1ccc(O)cc1)NC(=O)COCCOCCNC(=O)CN1CCN(CC(=O)O)CCN(CC(=O)O)CCN(CC(=O)O)CC1)C(C)C)C(N)=O [[^111In]PanSarbesin 1, ^111In-DOTA-PEG2-DTyr-Gln-Trp-Ala-Val-βAla-His-Phe-Nle-NH2, metal not drawn] ({DOTA-AEEA}-[dY]QWAV[βAla]HF[Nle]-NH2)	13%	3.75±0.73 % ID/g	–
